The source of these data is paper PMC10936626 (Autophagy, 2023).

This assay addresses GST-tagged SRC, bacterially purified (human, UniProt P12931-1 1-536). Description: pull-down.

B1: Flag-tagged MEF2D protein purified from HEK293T cells (natural protein, human, UniProt Q14814-1 1-521, looked up)
chain: MGRKKIQIQRITDERNRQVTFTKRKFGLMKKAYELSVLCDCEIALIIFNHSNKLFQYASTDMDKVLLKYTEYNEPHESRTNADIIETLRKKGFNGCDSPEPDGEDSLEQSPLLEDKYRRASEELDGLFRRYGSTVPAPNFAMPVTVPVSNQSSLQFSNPSGSLVTPSLVTSSLTDPRLLSPQQPALQRNSVSPGLPQRPASAGAMLGGDLNSANGACPSPVGNGYVSARASPGLLPVANGNSLNKVIPAKSPPPPTHSTQLGAPSRKPDLRVITSQAGKGLMHHLTEDHLDLNNAQRLGVSQSTHSLTTPVVSVATPSLLSQGLPFSSMPTAYNTDYQLTSAELSSLPAFSSPGGLSLGNVTAWQQPQQPQQPQQPQPPQQQPPQPQQPQPQQPQQPQQPPQQQSHLVPVSLSNLIPGSPLPHVGAALTVTTHPHISIKSEPVSPSRERSPAPPPPAVFPAARPEPGDGLSSPAGGSYETGDRDDGRGDFGPTLGLLRPAPEPEAEGSAVKRMRLDTWTLK
As for B1, the binding result is “binds”.
